The text below walks through data of article doi:10.1101/153403.

Assay [1] addresses mature myostatin growth factor dimer (from HRV-3C cleaved proMSTN-3C) (human) (UniProt O14793). As to the kind of experiment: SEC-MALS. A general note: SEC sorts molecules by how far they enter the pores of the column.
The target of assay [2] is myostatin pro-domain of the HRV-3C cleaved pro-myostatin complex (from proMSTN-3C) (human). As to the kind of experiment: SEC-MALS.

On to “mature myostatin growth factor dimer (from HRV-3C cleaved proMSTN-3C) (from UniProt O14793 267-375) (ligand)”, for which the stoichiometry N (commonly the number of molecules, sites or subunits per partner or assembly) in assay [1] was 2. Moreover, in assay [2], the stoichiometry N (pro-domains per mature GF dimer) was found to be 2.
